Laboratory results as given in US20100136006A1.

Key:
[1] = molecular target: CSF1 (colony stimulating factor 1 ligand) (UniProt P09603); assay: cell-based or functional assay
[2] = molecular target: IL34 (interleukin 34 ligand) (UniProt Q6ZMJ4); assay: cell-based or functional assay
UniProt Q6ZMJ4, sequence (Q6ZMJ4 21-242 limits assumed): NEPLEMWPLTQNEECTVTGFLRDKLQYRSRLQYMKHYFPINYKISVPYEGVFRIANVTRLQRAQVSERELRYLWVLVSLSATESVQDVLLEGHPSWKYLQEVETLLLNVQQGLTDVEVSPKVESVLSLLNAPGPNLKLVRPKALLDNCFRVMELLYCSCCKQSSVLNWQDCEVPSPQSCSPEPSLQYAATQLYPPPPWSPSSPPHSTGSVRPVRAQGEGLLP

UniProt P09603, sequence (P09603 33-190 limits assumed): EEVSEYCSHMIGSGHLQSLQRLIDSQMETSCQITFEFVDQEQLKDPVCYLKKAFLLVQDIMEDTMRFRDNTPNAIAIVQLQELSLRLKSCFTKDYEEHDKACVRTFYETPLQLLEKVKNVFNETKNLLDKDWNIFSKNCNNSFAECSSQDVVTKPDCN

hCSF1R-ECD.506-Fc (Fc fusion)
IC50 for inhibition of CSF1-induced monocyte proliferation [1]: 1.5 nM | IC50 for inhibition of IL34-induced monocyte proliferation [2]: 0.27 nM
